Reference: publication PMC6648666

T1: HqRRM1,2 BTFA-labeled (human, UniProt P31943 10-194)
T1 sequence: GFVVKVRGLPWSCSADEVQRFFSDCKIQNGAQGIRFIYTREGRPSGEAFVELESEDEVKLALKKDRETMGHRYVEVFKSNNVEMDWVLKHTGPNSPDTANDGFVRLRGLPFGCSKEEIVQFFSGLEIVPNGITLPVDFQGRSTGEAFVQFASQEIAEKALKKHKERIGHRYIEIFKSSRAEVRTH

T2: HqRRM2 (hnRNP H qRRM2) (human, UniProt P31943 94-194)
T2 sequence: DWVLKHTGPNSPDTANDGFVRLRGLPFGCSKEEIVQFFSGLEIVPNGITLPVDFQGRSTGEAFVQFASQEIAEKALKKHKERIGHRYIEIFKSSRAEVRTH

T3: HqRRM1,2 (hnRNP H tandem qRRMs) (human, UniProt P31943 10-194)
T3 sequence: T1 sequence

T4: HqRRM1 (hnRNP H qRRM1) (human, UniProt P31943 10-111)
T4 sequence: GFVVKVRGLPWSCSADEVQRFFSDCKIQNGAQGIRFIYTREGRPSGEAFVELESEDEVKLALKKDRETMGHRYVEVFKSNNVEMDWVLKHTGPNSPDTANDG


Assays:
HqRRM1,2 BTFA-labeled = molecular target: T1, HqRRM1,2 BTFA-labeled; test: 19F NMR PRE
HqRRM2 (hnRNP H qRRM2) = molecular target: T2, HqRRM2 (hnRNP H qRRM2); test: ITC
[1] = molecular target: T3, HqRRM1,2 (hnRNP H tandem qRRMs); test: ITC
HqRRM1 (hnRNP H qRRM1) = molecular target: T4, HqRRM1 (hnRNP H qRRM1); test: ITC

Row | Binder | binding result (HqRRM1,2 BTFA-labeled) | Kd (HqRRM2 (hnRNP H qRRM2)) [µM] | Kd [1] [µM] | Kd (HqRRM1 (hnRNP H qRRM1)) [µM]
1 | AGGGAU (ssRNA, phosphorothioate between A5 and U6) [AGGGA*U spin-labeled] | binds |  |  | 
2 | AGGGU (ssRNA) |  | 2.2 ± 0.8 | 0.8 ± 0.1 | 3.2 ± 0.1
